This note sets out measurements from the supplement of paper PMC7125110.

First the molecules themselves.
B1: glmS ribozyme (parent)
chain: AUAAAAGCGCCAGAACUACAGAAAUGUAGUUGACGAGGAGGAGGUUUAUCGAAUUUUCGGCGGAUGCCUCCAAA

Holding throughout (details): with glucosamine-6-phosphate
In series [1] the parent is B1. Briefly: self-cleavage kobs at 160 uM GlcN6P; higher = faster cleavage; RNA array. The procedure, abridged: (§1)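 Using a hybridised Cy3 probe at 37 °C, barcoded ribozyme variants transcribed in situ by E. coli RNA polymerase on sequenced MiSeq chips were monitored across tiles imaged over ~14 h. The flow contained glucosamine-6-phosphate from 40 μM to 10 mM in HEPES/KCl/Mg(OAc)2 buffer. Signals were normalised to baseline and to non-cleaving reference variants before per-tile medians were fit to one- or two-exponential decays to yield kobs. Weighted Michaelis–Menten fits across concentrations gave kcat and KM.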

The variants in series [2] derive from B1. Briefly: self-cleavage kobs at 640 uM GlcN6P; higher = faster cleavage; RNA array. The procedure, abridged:
as §1

The variants in series [3] derive from B1. Kind of series: self-cleavage kobs at 2500 uM GlcN6P; higher = faster cleavage; RNA array. In outline:
as §1

The variants in series [4] derive from B1. Briefly: self-cleavage kobs at 10000 uM GlcN6P; higher = faster cleavage; RNA array. The procedure, abridged: as §1

± gives the standard error. Variants at the floor of the assay were thinned out. A value given as a limit tells only on which side of the number the result lay.

Turning to A52U G60A G66C, in the series with glucosamine-6-phosphate [1], the “self-cleavage kobs at 160 uM GlcN6P” value is less than 1e-05 s⁻¹. For the same variant, the “self-cleavage kobs at 640 uM GlcN6P” value in the series with glucosamine-6-phosphate [2] was less than 1e-05 s⁻¹.
Take U47C U49A: the “self-cleavage kobs at 160 uM GlcN6P” value with glucosamine-6-phosphate [1] is less than 1e-05 s⁻¹. In addition, the “self-cleavage kobs at 2500 uM GlcN6P” value in the series with glucosamine-6-phosphate [3] is less than 1e-05 s⁻¹. Besides, the “self-cleavage kobs at 10000 uM GlcN6P” value with glucosamine-6-phosphate [4] was less than 1e-05 s⁻¹.
Consider G32U C34A G40C U57A G62U, for which the “self-cleavage kobs at 160 uM GlcN6P” value with glucosamine-6-phosphate [1] was less than 1e-05 s⁻¹.
As to A6G G7C C10U G35U G40U G60A C70G, in the series with glucosamine-6-phosphate [1], the “self-cleavage kobs at 160 uM GlcN6P” value was less than 1e-05 s⁻¹. The “self-cleavage kobs at 640 uM GlcN6P” value with glucosamine-6-phosphate [2] was less than 1e-05 s⁻¹. Besides, in the series with glucosamine-6-phosphate [3], the “self-cleavage kobs at 2500 uM GlcN6P” value was less than 1e-05 s⁻¹.
As to G9C A53G, the “self-cleavage kobs at 160 uM GlcN6P” value with glucosamine-6-phosphate [1] is less than 1e-05 s⁻¹. For the same variant, the “self-cleavage kobs at 2500 uM GlcN6P” value in the series with glucosamine-6-phosphate [3] is less than 1e-05 s⁻¹. Further, in the series with glucosamine-6-phosphate [4], the “self-cleavage kobs at 10000 uM GlcN6P” value was less than 1e-05 s⁻¹.
For the variant C11G G13C G38C C58A, the “self-cleavage kobs at 640 uM GlcN6P” value in the series with glucosamine-6-phosphate [2] was less than 1e-05 s⁻¹. In addition, in the series with glucosamine-6-phosphate [3], the “self-cleavage kobs at 2500 uM GlcN6P” value was less than 1e-05 s⁻¹.
For C34G G63A, in the series with glucosamine-6-phosphate [1], the “self-cleavage kobs at 160 uM GlcN6P” value was less than 1e-05 s⁻¹. In the series with glucosamine-6-phosphate [2], the “self-cleavage kobs at 640 uM GlcN6P” value was less than 1e-05 s⁻¹. Further, the “self-cleavage kobs at 2500 uM GlcN6P” value with glucosamine-6-phosphate [3] was less than 1e-05 s⁻¹. Moreover, the “self-cleavage kobs at 10000 uM GlcN6P” value with glucosamine-6-phosphate [4] was less than 1e-05 s⁻¹.
Consider G7U A52C, for which the “self-cleavage kobs at 160 uM GlcN6P” value in the series with glucosamine-6-phosphate [1] was less than 1e-05 s⁻¹. Also, the “self-cleavage kobs at 640 uM GlcN6P” value in the series with glucosamine-6-phosphate [2] was less than 1e-05 s⁻¹. In the series with glucosamine-6-phosphate [4], the “self-cleavage kobs at 10000 uM GlcN6P” value was less than 1e-05 s⁻¹.
Take G13C G43U C58G: the “self-cleavage kobs at 640 uM GlcN6P” value with glucosamine-6-phosphate [2] is less than 1e-05 s⁻¹. For the same variant, the “self-cleavage kobs at 2500 uM GlcN6P” value in the series with glucosamine-6-phosphate [3] was less than 1e-05 s⁻¹. Further, the “self-cleavage kobs at 10000 uM GlcN6P” value in the series with glucosamine-6-phosphate [4] is less than 1e-05 s⁻¹.
Regarding A12G A39U A53C, the “self-cleavage kobs at 160 uM GlcN6P” value with glucosamine-6-phosphate [1] was less than 1e-05 s⁻¹.
For the variant G38C A64G, the “self-cleavage kobs at 160 uM GlcN6P” value with glucosamine-6-phosphate [1] is less than 1e-05 s⁻¹. Moreover, in the series with glucosamine-6-phosphate [2], the “self-cleavage kobs at 640 uM GlcN6P” value is less than 1e-05 s⁻¹.
Turning to A6U A36C G51C, the “self-cleavage kobs at 640 uM GlcN6P” value in the series with glucosamine-6-phosphate [2] was less than 1e-05 s⁻¹. Also, the “self-cleavage kobs at 2500 uM GlcN6P” value with glucosamine-6-phosphate [3] was less than 1e-05 s⁻¹.
A33U G38U G41C G66U: the “self-cleavage kobs at 160 uM GlcN6P” value with glucosamine-6-phosphate [1] is less than 1e-05 s⁻¹. Also, the “self-cleavage kobs at 2500 uM GlcN6P” value with glucosamine-6-phosphate [3] was less than 1e-05 s⁻¹.
As for C16G G41C G59A, in the series with glucosamine-6-phosphate [1], the “self-cleavage kobs at 160 uM GlcN6P” value was less than 1e-05 s⁻¹. The “self-cleavage kobs at 640 uM GlcN6P” value with glucosamine-6-phosphate [2] is less than 1e-05 s⁻¹. Also, in the series with glucosamine-6-phosphate [3], the “self-cleavage kobs at 2500 uM GlcN6P” value was less than 1e-05 s⁻¹.
For the variant G38A A42G G60A, the “self-cleavage kobs at 160 uM GlcN6P” value with glucosamine-6-phosphate [1] was less than 1e-05 s⁻¹.
For the variant A14G C16U G41A, the “self-cleavage kobs at 640 uM GlcN6P” value with glucosamine-6-phosphate [2] stood at 0.00178 ± 0.00032 s⁻¹. Also, the “self-cleavage kobs at 2500 uM GlcN6P” value with glucosamine-6-phosphate [3] was found to be 0.0028 ± 0.00078 s⁻¹.
Turning to C11A G41U G43C, in the series with glucosamine-6-phosphate [1], the “self-cleavage kobs at 160 uM GlcN6P” value is less than 1e-05 s⁻¹. For the same variant, the “self-cleavage kobs at 640 uM GlcN6P” value with glucosamine-6-phosphate [2] was less than 1e-05 s⁻¹.
Regarding G13C G29C G44U C50A G62C, in the series with glucosamine-6-phosphate [2], the “self-cleavage kobs at 640 uM GlcN6P” value is less than 1e-05 s⁻¹. In addition, the “self-cleavage kobs at 2500 uM GlcN6P” value in the series with glucosamine-6-phosphate [3] is less than 1e-05 s⁻¹. The “self-cleavage kobs at 10000 uM GlcN6P” value with glucosamine-6-phosphate [4] is less than 1e-05 s⁻¹.
For A6U C11G A14C G41U, the “self-cleavage kobs at 640 uM GlcN6P” value in the series with glucosamine-6-phosphate [2] is less than 1e-05 s⁻¹. Also, the “self-cleavage kobs at 2500 uM GlcN6P” value with glucosamine-6-phosphate [3] is less than 1e-05 s⁻¹.
Take U47A C58A: the “self-cleavage kobs at 160 uM GlcN6P” value in the series with glucosamine-6-phosphate [1] was determined as 2.53e-05 ± 1.2e-05 s⁻¹. The “self-cleavage kobs at 640 uM GlcN6P” value in the series with glucosamine-6-phosphate [2] was 7.69e-05 ± 1.4e-05 s⁻¹. Further, the “self-cleavage kobs at 2500 uM GlcN6P” value with glucosamine-6-phosphate [3] is 0.00024 ± 2.9e-05 s⁻¹.
For G13A C67U, in the series with glucosamine-6-phosphate [1], the “self-cleavage kobs at 160 uM GlcN6P” value was determined as 2.9e-05 ± 1.4e-05 s⁻¹. Moreover, the “self-cleavage kobs at 640 uM GlcN6P” value with glucosamine-6-phosphate [2] turned out to be 4.93e-05 ± 8.8e-06 s⁻¹. Also, the “self-cleavage kobs at 2500 uM GlcN6P” value with glucosamine-6-phosphate [3] turned out to be 0.000122 ± 1.2e-05 s⁻¹. In addition, the “self-cleavage kobs at 10000 uM GlcN6P” value with glucosamine-6-phosphate [4] is 0.000405 ± 9e-05 s⁻¹.
For the variant C58A U69A, in the series with glucosamine-6-phosphate [1], the “self-cleavage kobs at 160 uM GlcN6P” value was determined as 4.65e-05 ± 2.2e-05 s⁻¹. Further, in the series with glucosamine-6-phosphate [2], the “self-cleavage kobs at 640 uM GlcN6P” value stood at 9.55e-05 ± 2.9e-05 s⁻¹. For the same variant, the “self-cleavage kobs at 2500 uM GlcN6P” value with glucosamine-6-phosphate [3] is 0.000101 ± 3.1e-05 s⁻¹.
In the case of A6G U49A, the “self-cleavage kobs at 640 uM GlcN6P” value in the series with glucosamine-6-phosphate [2] is less than 1e-05 s⁻¹. Besides, the “self-cleavage kobs at 10000 uM GlcN6P” value with glucosamine-6-phosphate [4] is less than 1e-05 s⁻¹.
On to A6G C11U G60A C71U, for which, in the series with glucosamine-6-phosphate [2], the “self-cleavage kobs at 640 uM GlcN6P” value is less than 1e-05 s⁻¹. Besides, the “self-cleavage kobs at 2500 uM GlcN6P” value in the series with glucosamine-6-phosphate [3] was less than 1e-05 s⁻¹.
Regarding A6G U57A G60A C71G, the “self-cleavage kobs at 160 uM GlcN6P” value in the series with glucosamine-6-phosphate [1] is less than 1e-05 s⁻¹. In addition, the “self-cleavage kobs at 640 uM GlcN6P” value with glucosamine-6-phosphate [2] was less than 1e-05 s⁻¹. Moreover, the “self-cleavage kobs at 2500 uM GlcN6P” value in the series with glucosamine-6-phosphate [3] was less than 1e-05 s⁻¹.
